The values below come from publication PMC5797941.

For the data set, the target named is T1, His6-SlyA (Escherichia coli K-12 MG1655?) (UniProt P0A8W3).
T1 sequence: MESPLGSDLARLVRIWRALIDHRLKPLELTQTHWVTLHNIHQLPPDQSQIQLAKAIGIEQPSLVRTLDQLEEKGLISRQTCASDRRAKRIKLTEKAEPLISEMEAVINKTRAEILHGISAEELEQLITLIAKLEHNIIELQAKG
The data set is described as follows: EMSA. As to conditions: 20 µl: 10 mM Tris/HCl pH 7.5, 50 mM KCl, 1 mM DTT, poly(dI-dC) (1 µg), ~1 nM biotin-DNA, 0-500 nM SlyA, 25 °C, 30 min. (In general: In EMSA bound probe runs differently from free probe, usually more slowly.)

On to “GATGTATGTTCTAATAAAATAGATTGGGTGGGTTGTATATTGACGTTAGTATAAATAGTATTAATGCCGCTTGCATGAATCAAGCAAAATTTATTTATATTAGTAATATGTATTTAATTAATAAATACATACATTATTTTTATGATTAAGGATAATCAATAATTAAAACAGGAAGTTCT (double strand) [gspA-gspC intergenic region]”, for which the DNA binding result is recorded as “binds”. In the case of “TGTTGCTAATAGTTAAATCGCGAATCATAAAAAGCAAAGGATCTTTTAACGAAATGTTAACTATGCGATCTGTATAGCAACTGCGGAAAACATTAATGCACTGATAAATAATGATTTATAAAAATAGGGTGCGAAATCCGTCACAGTTCAAACATACAAAATTTGTGATTTTACTTAACTATTGTGTAACTTTCATAAAACAATGTGATTCGTGTTTTTAATTAATTCACGAAAACTGGAATCGTAAAGGTGATGAC (double strand) [paaA-paaZ intergenic region]”, the DNA binding entry is “binds”. With “GATGGGGATAAGCAGAGCGCTTATCCCCGGCAAAGAGCAATAACCCTTCTGCGATCCCTGCCGCCTTCGTCAAAAGTATCGACGGGGATCGCTACCAGATTAACCCGAATCGGCATGGAGTCAACGACGG (double strand) [sgcA-sgcQ intergenic region]”, the binding result was “no binding”. Regarding “GCAAGCACCTTAAAATCACCATCATACACTAAATCAGTAAGTTGGCAGCATTACCGAAATCCCCATCCTTTAGGGCAGTGAGGATGTCAATAATAGCAGACCACATCATGAGTCATTCTGACCGACACATGCCAGAAGCAGAGGCTCCATCCCATTTTATACCTACCTTATAACACTTAGAAAAACAACATGTTAAAAATGTCTATTGGAAACAATTTTATTTCCAATTGTAATGATAACCATTCTCATATTAATATGACTACGTGATAATTAACTTTTGATGCACTCCGC (double strand) [fecI-insA-7 intergenic region]”, the DNA binding result is recorded as “binds”.
